A short description of this series: protease stability score; higher = more stable; yeast display proteolysis, trypsin and chymotrypsin.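 Note: log10 excess protease needed over predicted unfolded state with 0 meaning unfolded.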
Consider “DEELEEQVKEFFHAIETGDEDKLRELADPNARFHVGEKNLHGMKDVAERIRREREHIRYTVQIDSIKADGNRAHVRVVAEKEHNGNPRHFVLNVEIVRHNGRIRKVEATEDK”, for which the protease stability score worked out at 0.938.

In turn, “DEELEHILKDILKAQKHNDEKRLEELFDPNVHFEVGDKRYNGMSRFAHELAQTQKEIKWRVQWQTWDVQGNKATMQAEAVFEVNGRPFRYTYQARVQVKNGKVKRHEIHVDPQQLRDQNS” displayed a protease stability score of -0.087.

Turning to “DEELEKHADTLFEAWNHNDPKTVMKMFDPNAHVDVGDHRFRGREDLHDKMSEIQEHARLRVDVKDVKAQGEKATVRFSIEINYNGKPTQDDVVQDMEVRNGRIKRLSYRTDK”, the protease stability score was -0.13.

As for “DEELERQFHEFLKALETNDPHRMRQLVDPNARIRVGDKRYHGMEEYAKDVVKKMEEARVSIDIKSIEVQGNHFVVEHEITRDQNGKPKTHRQRMFFTVKNGKVKEMQIEDQK”, the protease stability score is 0.596.

Consider “DEELFELLRELLKAEQTGDEERLSQLVDKDVSVKIGDHVIHGRDQFAKHASERHKQMDVKVRIDSYEVRGDQVEASMTVVHDHNGRPHKDTVTLQAKYDNGKIKEMRFDFDTTVLKKIES”, for which the protease stability score worked out at 0.609.

The sequence “DEELHEVVERLLQALRNGDPDQFKKNVDPNVKIVVGETQYHGREEAAHQLHQEHNNSSFQYVSVDVQVHGNKVVIDQRRRETQNGQPDSENFSEEAEAHNGKFKHIRQRSTK” registered a protease stability score of -0.235.

“DEELHEWVKEYLKALQHNDPNQFKRLADPNVRYHVGDKEVHGREEWAKLVEKRRDSMRLEMKSVSIDAQGNKARVRLRFVEEHDGRPKEFEADFDFHVSNGKLVTVKVDEDQ” showed a protease stability score of 0.123.

“DEELHTIANEFNKALDRGDRKKLVDLADPNAQAVVGDQTLHGMEHVAHTIKKRQEEMRLDLKSVSVSVKGNNAILNFNALLHVNGKPVEISMRIILTVSNGKIQVIVEQFDPEQMRTARK” came in with a protease stability score of -0.289.

Regarding “DEELIKLAHELLRVFRRGDEDRFRQLVDPNARLQVGDTTLHGRENLAHHLRQVREHIRVDIKIDSMTAKGNKVDIKAKMNLEHNGRPDEKTVNFNVDVHNGKVHQMSFDVDS”, the protease stability score is 0.714.

Sequence “DEELITSANEMLQQLTTGNPQEIEKQADPNARVVVGDKTYTGMDQMARDRATEVQQIRRSFRIKTVQNQGDNANIHAEYEFNINGQPRTFELTLNVEAHNGKFVHIKYHLDPDHLNKLES” displayed a protease stability score of -0.078.

The sequence “DEELKERYERQEKAFENGDPDQAEDMMDPNVHVDVGNKELHGREEIVRDLHNVLQNWRFDRKVDSVNNRGDKLEVDAKQTLNVNGKPFHWHFTIVARAHNGKLKSQTVEMDPDTNRKIQS” displayed a protease stability score of -0.057.

As to “DEELKKQMDEALKARQNNDEQRLRDLFDPNVHIQVGDKVITGREEYAKRVVTTLRQLRFKYTVKSVKTKPNHIEIDVEVHNNRNGNPSNRKIVINMEADNGKISHLSVEHDG”, the protease stability score was determined as 0.585.

In turn, “DEELKKTATEFNKALNQNDEKRLKTLADPNATFVVGDEVIHGMDHVNKHQHDLKRNLRISIDVRDMKNSGPQAHVNAQVVFEIDGRPRQVEINYIITYHNGKVKKVRVDMDPEQLKEIKK” yielded a protease stability score of 1.08.

The sequence “DEELKKVVDRMMKAITEGNPDKVRHLMDKDVKVDIGDKRIQGNEQNARDNEKSQNHLEESLDVKRVDNKGDKATVHLTVHVNHNGKPETFKLDIHVQAHNGKVKNMNFQKRP” returned a protease stability score of -0.076.

With “DEELKKWFHHWVRAMERGDEQELRNQADPNAKFKIGDKTYHGMDEFARQVVQELRHLRVHIRFKRVRNEPGRLSVDATVVREHNGKPDSYRQKASATYHNGKLTNMTINKDK”, the protease stability score was found to be 0.735.

The sequence “DEELLELFERWVDAVHNNDKEQLKRLMDPNVKFQIGDKRWEGREKLVKDIADEQRQIRVRYRVDTMDATNGRADVHAKVEIEVNGKPISFRVRVFMEVHNGKVKSIVWNIPEDDMKKLQK” had a protease stability score of 1.63.

In turn, “DEELLELVRRWITAVRTNDPKQLEKNFDPNAKFEYGDKSVRGKEQVVREQEKQVQEIRFSYRISDFRVDNGRVEMEVKVHEKHNGRPDTKTVKWKAEMSNGRLVWMRMQKRQ” returned a protease stability score of 0.412.

“DEELLERIKRIMHSGNFTELANQMDKDAKIIIGDKVLHGREQVEEWYDHLEREVDHVEVHTMTIHNGHLTVHMRMTINGKTFKVIMVIEVHNGRVKRVEVRVTDPNVQKWLKSILQ” registered a protease stability score of 1.26.

“DEELLHRIRDFLRAVRHGDSDHLRQLMDEDVKMTVGDHEIHGRERILDKIKQTRDEQRIHIQVRSMHADGDKATVHADIENEHNGQPQTAKLRMTVQVENGRIKQIDVEIKQ” yielded a protease stability score of 0.904.

Consider “DEELLKELLKYLKVREHGDKDKFERMADPNAKIHVGDREVHGREHLAKEIKTEKEEMEVSVDRYTQRVNGDKARLKVDFKVEHNGKPERRAHVLVMHTHNGKIKSLKAQDTD”, for which the protease stability score was -0.111.

Sequence “DEELLKEWETLVEDNNEQDLSKMADEDARVNVGDKHYHGRENVEKFITTLAQRIDRIDIKTVDNDGEKVRIDMIAKFNGHQLRVVLEMQAHNGRVKVINARATNEDQEKLWKDLVD” gave a protease stability score of 0.798.

With “DEELLKIAKQFFEAEQNGDEDELKEQMDPNANLEYGDRTVHGRENIARWVSRVLREARIDFKEISVQDHNGRAKIHVRFVIDVNGRPNRMTRIVVVEQHNGRIKYLNIRMSEEQLKKLKE”, the protease stability score came out at 0.132.

Take “DEELLRNLEEVFKKNNFSTLANLADKDATLIVGDKVYKGKQQVRDWANELDERIDHVSIHSIDNQGDTMVARMVLNVDGVNAEFTLSVEISNGRVQVISLKVTDDEVKDQISKMES”: the protease stability score stood at 0.953.

“DEELMKTVHDLYSNLRQNDEHKFDELVDPNASLRVGDKRLHGREQIHDELKRQNEEIHVSRQMKEMTVHNGRADVNIRASETHNGQPDEFTIDATFELHNGRFISIDIKKRP” registered a protease stability score of -0.529.

In the case of “DEELNHQVHSFIKNVRQGNPKEAVKQADPNVRVQVGNKVINGRENMEKWYREMKREMRIVIKVDRIRAHNGRAEATYKVEYDVNGKPYTNTNSMHVEAHNGRIVSIYEDFDETHLREVQS”, the protease stability score is -0.367.

In turn, “DEELQDRFRRMIRIREEGDEQKLNEQVDPNVRLRVGDKEIKGREQLEEDQKRKNKQMRIRIKHLEVEAQGNKVRVSIHMTMRVNGRPFHFEFTANYTYHNGKLKHADVNIDPDFVREVHQ” returned a protease stability score of 0.027.

In the case of “DEELQDTAHKLLKLRQRGNWKHVQEMFDENARRIVGDKTLTGMTEIAEEVKREHEQWHLKITDLKASVEGDKVDIKFHAVFDVNGHPVTVNAMVVIVNQGDKAKRIQIRIPESVLNRINQ”, the protease stability score turned out to be 0.292.

In the case of “DEELQEEIEKFWKQLEFGNEDSLEKLMDPNAEMRVGDHTLHGRDSIAKELRRRQEEQRVDIHSYKLSAHNGRVTVNIDATFNHNGNPDRKIQRASLEISNGKLKRMDVRDEQ”, the protease stability score is -0.046.

In turn, “DEELQELATRQMEALHTNDEKQWVDLFDPNARQRYGDKTIKGREQFSQHLRDMQRHMRVQIHTFSAQVSNGDIHLKIDQLNNVNGTPYRDTVHLEFRVHNGRVKEVILHVSEDQQKKIER” came in with a protease stability score of 0.918.

“DEELQENAEHFMDDLKTGNEDSIKQNADPNAHFQIGDKTFHGREDFVKHIKKQRQHARIQLDVKNIDVQGDHVTINANVIVNVDGRPQSADVTILIRYHNGRIHTVLYSFSEKDKKKMES”: the protease stability score stood at 0.872.

The sequence “DEELQENAEHLVKAMNKGDREEISRQVDKNASVEIGDQELHGREDIRRFFHEVHEEMRFHIEIKTVDVKGNEVTVHAEAENDDNGRPQTNEVDIDIKVKNGKITSMRIQYNS” displayed a protease stability score of -0.539.

Regarding “DEELQKLVDDLLQALRSNNPEQFENNFDPNAKIRYGEKDVHGRTRFVKELQRERDDARFRIETYRVDNQGDKASLKMVFQRDHNGQPQRHTARAEIVVKNGKVQTAVFNFDS”, the protease stability score was -0.018.

Consider “DEELQKMVEQFFRNEQNGNRDQLKRLADPNVNFQYGDKTIHGMDTFLQRQRERHEDSRQDFKSIDMKVQGDKVRVTAVLEQETDGQPERFRREMTVEAHNGKIKSVNVQHSQ”, for which the protease stability score is -0.082.

“DEELQSDVEEFLRNQTTGDEDRLKELADENAKVHVGDKTLHGMDQIKRYERQEREEMRIDYKHWDIKVSGNQVTVHFDFVNRFNGKPQHVSVILHVQFDNGKIKAADYRTDPREREKIRS” returned a protease stability score of -0.463.

Sequence “DEELQSQAERFLKNLQRGDETKLLQQMDPNAKMQYGDKTVHGRERLRTWVKHVKDEMRVQVDKFRQTVSGNHIRFDWDATFNINGTPDKIRIDVDIQVHNGRIKLITFRVSEEQTKRLHS” had a protease stability score of 0.371.

On to “DEELRKLAEQLVTIFQTGNEHHVQELMDPNAKLQIGDTEFKGREEYVKEVKKRRDEMRFSIKKVKVDAHGDKIDIKIHMTMKHDGKPRDYVVTVHLRVQGDKIKSAHYQDTK”, for which the protease stability score stood at 0.155.

For “DEELRKNFHTFLELMKNGNPEKLAEMADPNVRVNIGDEQLRGKHRLHQHARHLKHSLRFDYQSVDVKVTGNRVDANLRVVVKVNGKPIDYTVKIHITWRNGKIKTMEIKIPEDDQKKMRR”, the protease stability score is -0.089.

Sequence “DEELRKQAEELLKARKTNDERQNEELFDPNAHVRYGDRTLHGNEQASKDIADRLEEIRVSMSVEKVEVQGEHVRLEFKFEFEVNGRPQTQTATEEMTVHNGRIKEVRLNVSEEQKRRYKK” returned a protease stability score of -0.026.

The sequence “DEELRKQAEEVMKAWQHGDEKTYMDLFDPNAKWEYGDDNITGRENMSDYMRKVRKEIRVHVQSVEVRAHNGRLEVVATEEREHNGRPDTVTVIMEAKAHNGKIQVVRVEERQ” displayed a protease stability score of 0.404.

“DEELRRRLEKFFRDLRNGNESEAVKLVDPNARFNIGDTEYHGMHDYARELLRQRHKLNWHVRQVTIEAKNGHVNITMSVQFNVNGRPDSYTNTVRAVLHNGRVKEMSNRVPKDQLHKIKK”: the protease stability score came to 0.209.

For “DEELSKRAKHLIEMMKTGDEKEIQKQMDKDVKIDIGDKTIKGREDAAEQWRNRVEKIRWSLTIRHVNVQGNHVTMNVEVHLNVNGQPNRYTIEISFTFHNGKIVYISVSFDEDTEEKAKK”, the protease stability score is 1.18.

Regarding “DEELTKRAQKQINVLRTGDEKKVLELMDPNAKLSVGEKEYHGMEDIAKTLAQENRQMRIDVKDMKFTSKGDTVDVTLSYVVDHNGQPDEQVVRVHIVAHNGKIKSQEVRRDS”, the protease stability score was -0.762.

“DEELVDQVKSFIELLQKGNEDELMKQLDEDAKIHYGDKTIHGREQVREWVKRFKDEMRQKIDSVQFREKPNRVSMKADMSYTQNGTPHDQQIDATFRAHNGRIKQVNIQLTK”: the protease stability score is -0.084.

The sequence “DEELVEQLKKMYENEKNGDPDKVHEQFDKDARIDIGEKQVRGRDQASREAERERKQINVEIKHVDIKAHNGRATIDMVIVFNINGQPHRRRVTVYAVLHNGKIKSMSRHMDPSEQDQLTQ” registered a protease stability score of 0.343.

“DEELVKRAEDMIKAIQRGDEDRINQMVDPNADVRVGDQRYDGMHEYVTRLKSRQKRMRRSVSVESVTAKNGQVRIDAKMTRNDNGRPERFKHIIIIKAENGEIQVIHVHKSQ” displayed a protease stability score of -0.078.

With “DEELVKRLKKLLEALESGDEEKVHHMFDPNVRFQVGDKRFHGRERYASTVKREKDEMRNEVTSYRLTATGDKAEMSFRNILDENGSPHDDIQVMHVHVQGDKIKRASIQETR”, the protease stability score came to 0.071.

(Values after the NTF2 design screens of Basanta et al. (2020).)
